Data reported in patent publication US20130039916A1.

Biological target: "Bac-wt" human IL-23 (identical to elastikine in sequence, expressed in SF9 cells) (human) (UniProt P29460)
Experiment: BIAcore SPR, antibody immobilised on CM5 chip, IL-23 in solution

Kd | Binder
10 nM | humanized anti-human IL-23p19 antibody 7G10 (antibody, human IgG1, kappa, V domains shown) VH: QVQLVQSGAEVKKPGASVKVSCKASGYTFTSNVMHWVRQAPGQGLEWMGYINPYNDGTKYNEKFKGRVTMTTDTSTSTAYMELRSLRSDDTAVYYCARNWDVAYWGQGTLVTVSS VL: DIQMTQSPSSLSASVGDRVTITCRASQSISDYLHWYQQKPGKAPKLLIYYASQSISGVPSRFSGSGSGTDFTLTISSLQPEDFATYYCQNGHSFPFTFGQGTKVEIKR
5.1 nM | humanized anti-human IL-23p19 antibody 6H12 (antibody, human IgG1, kappa, V domains shown) VH: QVQLVQSGAEVKKPGASVKVSCKASGYTFNRYLIHWVRQAPGQGLEWMGYINPNNAGTNYNEKFKGRVTMTTDTSTSTAYMELRSLRSDDTAVYYCARNWDQAYWGQGTLVTVSS VL: DIQMTQSPSSLSASVGDRVTITCRASQSISDYLHWYQQKPGKAPKLLIYYTSQSISGVPSRFSGSGSGTDFTLTISSLQPEDFATYYCQNGHSFPFTFGQGTKVEIKR
